Assay [1] has as its target CD30 expressed on L540 cells (Homo sapiens (Human)) (UniProt P28908). Description: flow cytometry on CD30-expressing L540 cells, FITC-labeled goat anti-human secondary.
In assay [2] the target is FcγRIIIa Phe/Phe^158 on human effector cells (human) (UniProt P08637).
For assay [3], the target named is CD30 expressed on L540 cells (Homo sapiens (Human)) (UniProt P28908).

UniProt P28908, sequence (P28908 19-595 limits assumed): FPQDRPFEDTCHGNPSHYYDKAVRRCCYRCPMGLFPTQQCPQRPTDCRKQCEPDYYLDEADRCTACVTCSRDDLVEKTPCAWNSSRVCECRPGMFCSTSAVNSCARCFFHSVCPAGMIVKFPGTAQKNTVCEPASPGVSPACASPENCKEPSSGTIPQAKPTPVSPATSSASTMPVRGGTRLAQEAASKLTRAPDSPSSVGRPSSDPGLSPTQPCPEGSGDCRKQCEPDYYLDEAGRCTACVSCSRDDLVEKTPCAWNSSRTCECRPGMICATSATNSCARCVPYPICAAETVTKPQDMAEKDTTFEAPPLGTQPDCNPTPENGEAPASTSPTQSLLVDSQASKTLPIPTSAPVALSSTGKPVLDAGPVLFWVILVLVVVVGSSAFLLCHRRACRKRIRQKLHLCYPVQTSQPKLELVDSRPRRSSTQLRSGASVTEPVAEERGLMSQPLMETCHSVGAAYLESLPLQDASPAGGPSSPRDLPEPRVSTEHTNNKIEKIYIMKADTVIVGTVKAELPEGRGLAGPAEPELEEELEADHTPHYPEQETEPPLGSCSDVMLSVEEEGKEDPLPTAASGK

In the case of MDX-060 LEX (antibody), the EC50 in assay [1] is 0.227 µg/mL. Also, the ADCC, maximal percent cell lysis (homozygous FcγRIIIa Phe/Phe^158 effector cells) in assay [2] was 27%. In assay [3], this substance yielded an ADCC, maximal percent cell lysis (heterozygous FcγRIIIa Phe/Val^158 effector cells) of 31%.
The substance MDX-060 LEX^Opt (antibody) showed an EC50 in assay [1] of 0.196 µg/mL. Moreover, the ADCC EC50, times lower than MDX-060 CHO (FcγRIIIa Phe/Phe^158 effector cells) in assay [2] was 3 times lower. In assay [3], this substance yielded an ADCC EC50, times lower than MDX-060 CHO (FcγRIIIa Val/Phe^158 effector cells) of 5 times lower and an ADCC EC50, times lower than MDX-060 LEX (FcγRIIIa Val/Phe^158 effector cells) of 3 times lower.
MDX-060 CHO (antibody) displayed an EC50 in assay [1] of 0.18 µg/mL. In assay [2], this substance came in with an ADCC, maximal percent cell lysis (homozygous FcγRIIIa Phe/Phe^158 effector cells) of 15%. The substance also had an ADCC, maximal percent cell lysis (heterozygous FcγRIIIa Phe/Val^158 effector cells) in assay [3] of 31%.

Source of the values: patent US8716557B2.
